For this data set, the system named is Bevacizumab (Avastin; anti-VEGF humanized monoclonal antibody) (Homo sapiens (humanized antibody)?). The following applies: quartz crystal microbalance (AFFINIX Q8), velocity analysis; Bevacizumab immobilized on sensor; phosphate buffer (DPBS); aptamer 1.48-2.91 uM; sequence ….

Consider 1 sequence from patent US20190284560.

The term Kd denotes a measure of binding affinity in units of concentration.

Turning to “CCGTGTGGTGGGGGTTGGGGGTTGTCGTTCGCCG [Bevacizumab DNA aptamer SEQ ID NO: 1]”, the Kd worked out at 9.1 µM.
